Assay results: patent publication US20230181701A1

Biological target: CD20 on Daudi cells (UniProt P11836)
Experiment: cell-based or functional assay

UniProt P11836, sequence (P11836 whole entry): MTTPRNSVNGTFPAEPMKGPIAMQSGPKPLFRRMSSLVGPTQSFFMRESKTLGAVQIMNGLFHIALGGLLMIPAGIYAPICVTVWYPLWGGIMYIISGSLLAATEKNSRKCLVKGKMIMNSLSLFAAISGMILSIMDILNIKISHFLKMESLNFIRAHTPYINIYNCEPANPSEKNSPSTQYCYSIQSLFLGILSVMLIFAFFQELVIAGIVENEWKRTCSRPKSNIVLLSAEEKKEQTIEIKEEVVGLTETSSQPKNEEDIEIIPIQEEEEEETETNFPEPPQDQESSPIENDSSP

Which CDC of Daudi cells with baby rabbit serum (CCK8) (% of cells dead) does the source give for “Anti-CD20 IgG (Rituximab, N7022, 10 mg/mL, Mabthera) (antibody)” here?
The CDC of Daudi cells with baby rabbit serum (CCK8) (% of cells dead) was 70.
